Test results from patent US20260098102A1 (NATIONAL UNIVERSITY CORPORATION KOBE UNIVERSITY, published 2026).
Changes are numbered by the printed parent chain.

T1: mouse SIRPA variant hmSIRPA_Δ2 (mouse (with human residues), UniProt P97797 35-513)
T1 construct: FLAG-tagged (pFLAG V5-DEST), on 293α cells; also called hmSIRPA_Δ42 [sic]
T1 chain: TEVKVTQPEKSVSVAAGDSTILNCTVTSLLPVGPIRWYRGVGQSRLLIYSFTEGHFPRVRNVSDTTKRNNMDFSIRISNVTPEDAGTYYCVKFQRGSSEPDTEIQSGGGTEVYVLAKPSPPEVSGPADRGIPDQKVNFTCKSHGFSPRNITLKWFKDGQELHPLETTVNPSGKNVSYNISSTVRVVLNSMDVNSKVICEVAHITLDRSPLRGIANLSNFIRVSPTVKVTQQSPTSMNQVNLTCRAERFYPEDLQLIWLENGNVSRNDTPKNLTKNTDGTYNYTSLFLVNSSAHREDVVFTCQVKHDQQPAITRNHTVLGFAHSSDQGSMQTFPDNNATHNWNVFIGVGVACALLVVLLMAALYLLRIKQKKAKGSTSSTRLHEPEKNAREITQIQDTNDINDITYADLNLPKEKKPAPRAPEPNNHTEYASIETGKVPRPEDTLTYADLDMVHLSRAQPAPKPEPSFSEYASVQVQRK

B1: human chimeric anti-SIRPA antibody cD13 (antibody, human IgG4 S228P, kappa, F234A L235A, V domains shown)
VH: EVQLVESGGGLVQPGRSLKLSCLASGFTFSDYGMIWVRQAPGKGLEWVASISSSSSYIYYADTVKGRFTISRENAKNTLFLHMTSLRSEDTALYYCARRYYGFNYPFDYWGQGVMVTVSS
VL: DTVLTQSPALAVSLGQRVTISCGASKSVRTYMHWYQQKSGQQPKLLIYSASNLEAGVPSRFSGSGSGTDFTLTIDPVEADDIANYYCQQSNEPPYTFGAGTKLELKR
notes: Human IgG4proFALA heavy chain, human kappa light chain; also called cD13 (IgG4pf); human chimeric antibody D13
B2: humanized anti-SIRPA antibody hD13_H1L3 (antibody, human IgG4 S228P, kappa, F234A L235A, V domains shown)
VH: QVQLVESGGGVVQPGRSLRLSCAASGFTFSDYGMIWVRQAPGKGLEWVASISSSSSYIYYADSVKGRFTISRDNSKNRLYLQMNSLRAEDTAVYYCARRYYGFNYPFDYWGQGTMVTVSS
VL: DTQLTQSPSSLSASVGQRVTITCGASKSVRTYMHWYQQKPGKQPKLLIYSASNLEAGVPSRFSGSGSGTDFTLTISSLQPEDFATYYCQQSNEPPYTFGQGTKLEIKR
notes: hH1 heavy chain (IgG4proFALA) and hL3 kappa light chain; also called hD13_HIL3; HIL3 antibody
B3: humanized anti-SIRPA antibody hD13_H2L3 (antibody, human IgG4 S228P, kappa, F234A L235A, V domains shown)
VH: B2 VH with Q1E, R78T
VL: B2 VL
notes: hH2 heavy chain (IgG4proFALA) and hL3 kappa light chain; also called H2L3 antibody
B4: humanized anti-SIRPA antibody hD13_H2L2 (antibody, human IgG4 S228P, kappa, F234A L235A, V domains shown)
VH: B2 VH with Q1E, R78T
VL: B2 VL with D1A, T2I, Q43A
notes: hH2 heavy chain (IgG4proFALA) and hL2 kappa light chain; also called H2L2 antibody
B5: humanized anti-SIRPA antibody hD13_H1L4 (antibody, human IgG4 S228P, kappa, F234A L235A, V domains shown)
VH: B2 VH
VL: DTVLTQSPDSLAVSLGQRATINCGASKSVRTYMHWYQQKPGQQPKLLIYSASNLEAGVPSRFSGSGSGTDFTLTISSLQAEDVAVYYCQQSNEPPYTFGQGTKVEIKR
notes: hH1 heavy chain (IgG4proFALA) and hL4 kappa light chain; also called hD13_HIL4; hD13_HIL4h

Legend:
[1] = target: T2, human SIRPA_V6 (human, UniProt P78324 31-504); assay: cell-based ELISA on 293α cells expressing FLAG-tagged SIRPA_V6; Abs 490 normalized to FLAG tag [ii]
T2 construct: FLAG-tagged (pFLAG V5-DEST), on 293α cells; also called human SIRPA Variant 6
Procedure: The 293a cells, described in Example 1)-6, were prepared at 5× 10⁵ cells/mL in a 10% FBS-containing DMEM medium. pFLAG V5-DEST-SIRPA_V1-V10, pFLAG V5-DEST-monkey SIRPA, pFLAG V5-DEST-mouse SIRPA, or pFLAG V5-DEST was introduced into the cells using Lipofectamine LTX (Invitrogen), and 100 μL each was aliquoted to a 96-well plate (Corning Incorporated) and cultured overnight in a 10% FBS-containing DMEM medium at 37° C. under a 5% CO₂ condition. The obtained introduced cells were used for cell-based ELISA in a state that they adhered. After the culture supernatant was removed, 50 μL per well of hD13_HIL3, hD13_HIL4h, hD13_H2L2, hD13_H2L3, or cD13 prepared in Examples 6 and 7 or a control antibody was added to each of various SIRPA genes-introduced cells at a final concentration of 0 to 10,000 ng/ml, and the mixture was allowed to stand at 4° C. for one hour. Thereafter, binding to human SIRPA was evaluated in the same manner as in Example 5-1.

[2] = target: T1, mouse SIRPA variant hmSIRPA_Δ2; assay: cell-based ELISA on 293α cells expressing FLAG-tagged hmSIRPA_Δ2; Abs 490 normalized to FLAG tag [iii]
Procedure: After the culture supernatant of 293α cells into which the pFLAG V5-DEST-hmSIRPA_Δ0, Δ1, and Δ2 expression vector prepared in 2)-1-2-2 was introduced and the pFLAG V5-DEST-introduced 293α cells was removed, 50 μL per well of four different D13 humanized anti-human SIRPA antibodies and a chimeric anti-human SIRPA antibody diluted with 5% FBS-containing PBS to a final concentration of 10,000 ng/mL were added to these cells, and the mixture was allowed to stand at 4° C. for one hour. Further, 50 μL per well of an anti-FLAG M2 antibody (SIGMA) diluted with 5% FBS-containing PBS to a final concentration of 10,000 ng/mL was added to a well for detecting expression of each SIRPA construct, and the mixture was allowed to stand at 4° C. for one hour. Thereafter, binding to each construct was evaluated in the same manner as in the evaluation of the binding activity of the human SIRPA. Binding of anti-human SIRPA antibodies to each construct was standardized by expression of the FLAG tag.

[3] = target: T3, human SIRPA_V1 protein (human, UniProt P78324 31-504); assay: blocking cell-based ELISA: peroxidase-labeled CD47-Fc (1 µg/mL) on 293α cells expressing SIRPA_V1; y axis = CD47-Fc signal relative to no antibody (100)
T3 construct: Expressed on 293α cells from pcDNA3.2 V5-DEST or pFLAG V5-DEST (FLAG-tagged) vectors; also called human SIRPA Variant 1; hSIRPA V1
Procedure: After the culture supernatant of human SIRPA or monkey SIRPA expression vector-introduced 293α cells prepared in Example 8)-1 was removed, 50 μL per well of hD13_HIL3, hD13_HIL4h, hD13_H2L2, or hD13_H2L3 diluted with 5% FBS-containing PBS to a final concentration of 0 to 10,000 ng/ml was added to each of pcDNA3.2 V5-DEST-SIRPA_V1, pcDNA3.2 V5-DEST-SIRPA_V2, pcDNA3.2 V5-DEST-monkey SIRPA, and pcDNA3.2 V5-DEST-introduced 293α cells, immediately followed by addition of peroxidase-labeled CD47-Fc prepared with 5% FBS-containing PBS at 1 μg/mL, and the mixture was allowed to stand at 4° C. for one hour. Thereafter, the SIRPA-CD47 binding inhibitory activity was evaluated in the same manner as in 1)-6-3.

[4] = target: T4, SIRPA_V1_IgV (human, UniProt P78324 31-149); assay: SPR Biacore T200, antibody captured on anti-human IgG (Fc), SIRPA_V1_IgV as analyte, 1:1 model
T4 construct: Secreted recombinant protein from FreeStyle 293F cells
Procedure: The dissociation constants of hD13_HIL3, hD13_HIL4, hD13_H2L2, and hD13_H2L3 prepared in Example 7 against human SIRPA_V1_IgV and monkey SIRPA_ECD prepared in Example 1 were measured by a capture method of capturing a humanized antibody as a ligand to an Anti-Human IgG (Fc) antibody immobilized using Human Antibody Capture Kit (GE Healthcare Bioscience Corp.) and measuring an antigen as an analyte, using Biacore T200 (GE Healthcare Bioscience Corp.). HBS-EP+ (GE Healthcare Bioscience Corp.) was used as a running buffer, and CM5 (GE Healthcare Bioscience Corp.) was used as a sensor chip. Onto the chip, 1 μg/mL humanized antibody was added at 10 μL/min for 60 seconds, and then a serially diluted solution (0.5 to 8 μg/mL) of human SIRPA protein or a serially diluted solution (1 to 16 μg/mL) of monkey SIRPA protein was added as an antigen at a flow rate of 30 μL/min for 120 seconds, and subsequently the dissociation phase for 600 seconds was monitored. As a regenerant, 3 M magnesium chloride (GE Healthcare Bioscience Corp.) was added at a flow rate of 20 μL/min for 30 seconds. For data analysis, a binding rate constant (ka), a dissociation rate constant (kd), and a dissociation constant (KD; KD=kd/ka) were calculated using a 1:1 binding model.

T2 sequence (P78324 31-504 S105P limits assumed): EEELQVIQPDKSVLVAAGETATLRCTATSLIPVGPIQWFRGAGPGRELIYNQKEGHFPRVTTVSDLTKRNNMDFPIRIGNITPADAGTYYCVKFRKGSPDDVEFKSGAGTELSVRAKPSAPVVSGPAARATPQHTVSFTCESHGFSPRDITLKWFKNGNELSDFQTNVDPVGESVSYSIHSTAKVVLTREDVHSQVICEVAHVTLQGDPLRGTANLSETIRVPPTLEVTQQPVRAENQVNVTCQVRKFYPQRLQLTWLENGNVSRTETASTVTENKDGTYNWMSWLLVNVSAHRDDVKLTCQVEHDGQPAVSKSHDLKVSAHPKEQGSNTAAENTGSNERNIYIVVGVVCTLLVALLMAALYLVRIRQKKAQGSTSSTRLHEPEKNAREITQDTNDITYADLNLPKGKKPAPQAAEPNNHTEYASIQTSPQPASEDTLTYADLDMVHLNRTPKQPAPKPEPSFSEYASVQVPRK
T4 sequence (P78324 other isoform, or with tags, fused parts or gaps limits assumed): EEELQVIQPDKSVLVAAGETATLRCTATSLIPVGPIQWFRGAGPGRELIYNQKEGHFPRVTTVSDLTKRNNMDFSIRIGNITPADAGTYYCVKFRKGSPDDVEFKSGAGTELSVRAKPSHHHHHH
T3 sequence (P78324 31-504 limits assumed): as the sequence (P78324 31-504 S105P limits assumed) above, with P75S counted along it

EC50 (read off the curve) [1] [µg/mL]	binding result [2]	IC50 (read off the curve) [3] [µg/mL]	Kd [4] [nM]	Binder
~0.04	no binding (tested: 10000 ng/mL)	~0.7		B1
~0.04	no binding (tested: 10000 ng/mL)	~0.5	0.0785	B2
~0.04	no binding (tested: 10000 ng/mL)	~0.6	0.0859	B3
~0.04	no binding (tested: 10000 ng/mL)	~0.6	0.131	B4
~0.04	no binding (tested: 10000 ng/mL)	~0.5	0.107	B5
